The target of series [1] is T1, L-selectin (LS-Rg) (Homo sapiens) (UniProt P14151).
T1 sequence: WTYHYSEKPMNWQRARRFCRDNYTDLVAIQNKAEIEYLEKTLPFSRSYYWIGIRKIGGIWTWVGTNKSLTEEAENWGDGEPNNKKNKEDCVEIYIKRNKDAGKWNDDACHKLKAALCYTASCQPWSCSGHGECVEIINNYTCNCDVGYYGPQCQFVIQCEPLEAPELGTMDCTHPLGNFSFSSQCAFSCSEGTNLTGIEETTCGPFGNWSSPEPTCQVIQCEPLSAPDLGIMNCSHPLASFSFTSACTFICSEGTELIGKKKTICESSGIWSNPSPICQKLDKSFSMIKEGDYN
The experiment in a line: filter.

In series [2] the target is T2, E-selectin (ES-Rg) (Homo sapiens) (UniProt P16581).
T2 sequence: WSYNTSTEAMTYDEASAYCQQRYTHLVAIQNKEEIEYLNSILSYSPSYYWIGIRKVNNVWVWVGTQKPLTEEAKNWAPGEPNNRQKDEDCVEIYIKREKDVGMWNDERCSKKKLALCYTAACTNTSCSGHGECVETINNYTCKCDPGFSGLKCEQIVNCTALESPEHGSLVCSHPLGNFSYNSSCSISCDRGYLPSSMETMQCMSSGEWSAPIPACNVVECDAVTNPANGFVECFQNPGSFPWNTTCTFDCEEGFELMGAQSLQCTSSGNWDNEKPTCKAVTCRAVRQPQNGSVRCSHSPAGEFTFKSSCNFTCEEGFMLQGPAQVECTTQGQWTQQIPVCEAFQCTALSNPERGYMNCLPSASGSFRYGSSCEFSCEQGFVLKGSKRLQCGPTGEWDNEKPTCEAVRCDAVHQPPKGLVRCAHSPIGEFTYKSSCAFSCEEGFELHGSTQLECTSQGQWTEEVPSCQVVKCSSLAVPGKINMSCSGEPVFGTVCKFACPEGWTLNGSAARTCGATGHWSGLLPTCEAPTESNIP
The experiment in a line: filter.

Series [3] concerns the target CD22beta (CD22b-Rg) (UniProt P20273). Nature of the series: filter.
In series [4] the target is T3, Wheat germ agglutinin (WGA) (Triticum vulgare) (UniProt P10968).
T3 sequence: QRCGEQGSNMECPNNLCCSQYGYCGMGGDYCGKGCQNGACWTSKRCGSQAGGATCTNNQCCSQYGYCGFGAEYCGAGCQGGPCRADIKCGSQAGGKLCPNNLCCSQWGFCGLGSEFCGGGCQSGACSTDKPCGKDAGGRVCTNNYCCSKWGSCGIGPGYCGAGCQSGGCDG
The experiment in a line: filter.

Series [5] deals with T4, P-selectin (PS-Rg) (Homo sapiens) (UniProt P16109).
T4 sequence: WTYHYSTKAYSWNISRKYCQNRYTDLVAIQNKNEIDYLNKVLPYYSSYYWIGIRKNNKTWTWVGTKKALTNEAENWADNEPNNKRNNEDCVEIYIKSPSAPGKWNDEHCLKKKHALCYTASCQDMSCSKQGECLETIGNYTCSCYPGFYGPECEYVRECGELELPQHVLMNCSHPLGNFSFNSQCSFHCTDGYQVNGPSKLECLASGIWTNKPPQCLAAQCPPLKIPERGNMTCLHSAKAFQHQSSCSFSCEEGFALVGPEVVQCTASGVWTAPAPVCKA
The experiment in a line: filter.

Series [6] has as its system Datura stramonium lectin (Datura stramonium). The experiment in a line: filter.
Series [7] has as its target T5, soluble L-selectin (Homo sapiens) (UniProt P14151).
T5 sequence: T1 sequence
The experiment in a line: filter. To be noted: 2'-F C and U, 37 C.

Series [8] addresses T6, L-selectin on PBMC / lymphocytes (Homo sapiens) (UniProt P14151).
T6 sequence: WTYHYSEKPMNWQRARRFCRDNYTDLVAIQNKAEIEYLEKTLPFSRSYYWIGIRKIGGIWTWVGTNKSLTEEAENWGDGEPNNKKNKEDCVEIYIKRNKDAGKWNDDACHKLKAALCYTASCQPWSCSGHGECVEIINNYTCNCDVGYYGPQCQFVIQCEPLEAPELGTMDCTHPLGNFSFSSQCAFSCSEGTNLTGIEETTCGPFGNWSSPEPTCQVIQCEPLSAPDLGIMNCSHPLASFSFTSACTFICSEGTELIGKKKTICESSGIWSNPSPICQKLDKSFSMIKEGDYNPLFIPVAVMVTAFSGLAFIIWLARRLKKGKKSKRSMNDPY
To be noted: 2'-NH2 on all C and U; PBMC binding on ice; competed by DREG-56.

Series [9] has as its target T1, L-selectin (LS-Rg) (Homo sapiens). The experiment in a line: inhibition. To be noted: 2'-NH2 C and U; sialyl-LewisX competition ELISA.
Where [10] appears, read: 2'-NH2 C and U, <5% bound at 1 uM.
Setting [11] is: 2'-NH2 C and U, HBSS, room temperature.
Where [12] appears, read: 2'-NH2 on all C and U, 4 C, HSMC.

Our source for the Kd and IC50 values is patent publication US20030059769.

In the case of “CTACCTACGATCTGACTAGCCGAGGATCTGATACTTATTGAACATAMCCGCACNCAGGCTTGCTTACTCTCATGTAGTTCC [LD102]”, the Kd in series [1] (37 C) worked out at 7.9 nM.

For the sequence “CTACCTACGATCTGACTAGCCGAGGTAGTCGTTATAGGGTRCRCACGACACAAARCRGTRGCTTACTCTCATGTAGTTCC [LD127]”, the Kd in series [1] (room temp, 890 pM at 37 C) is 1 nM; in [2] (room temperature), 1.3 µM; in series [3] (<1% at 700 nM), over 100 µM; in [4] (<3% at […]) it was over 100 µM; in series [5] (room temperature) it was 780 nM.

In turn, “GGGAAAAGCGAAUCAUACACAAGAAAGGGAUGGGAUUGGGACGAGCGGCCAAGACUCGGCGGGAACGAAGGGUCCGCUCCGCCAGAGACCAACCGAGAA [WGA ligand 6.8]” gave a Kd in series [6] (setting [10]) of over 20 µM.

As to “GGGAAAAGCGAAUCAUACACAAGACAGCGGCGGAGUCAGUGAAAGCGUGGGGGGYGCGGGAGGUCUACCCUGACGCUCCGCCAGAGACCAACCGAGAA [WGA ligand 6.14]”, the Kd in [4] (2'-NH2 on all C and U, <5% bound at 1 uM WGA, estimate) was over 20 µM.

Take “GGGAAAAGCGAAUCAUACACAAGACGGCUGUGUGGUGUUGGAGCGUCAUAGUAGGAGUCGUCACGAACCAAGGCGCUCCGCCAGAGACCAACCGAGAA [WGA ligand 11.24]”: the Kd in series [6] (setting [10]) is over 20 µM.

In series [4] (2'-NH2 on all C and U, HBSS, room temperature), “GGGAAAAGCGAAUCAUACACAAGACUGGCAAGRAGUGCGUGAGGGUACGUUAGGGGUGUUUGGGCCGAUCGCAUGCUCCGCCAGAGACCAACCGAGAA [WGA ligand 11.7]” showed a Kd of 0.016 µM.

The sequence “GGGAAAAGCGAAUCAUACACAAGAGAGGUGRAUGGGAGAGUGGAGCCCGGGUGACUCGAGGAUUCCCGUGCUCCGCCAGAGACCAACCGAGAA [WGA ligand 11.3]” had a Kd in [4] (setting [11]) of 0.41 µM.

In turn, “GGGAAAAGCGAAUCAUACACAAGAGUAGGAGGUUCCAUCACCAGGACUCGGCGGGAACGGAAGGUGAUGSGCUCCGCCAGAGACCAACCGAGAA [WGA ligand 11.35]” registered a Kd in series [4] (setting [11]) of 0.09 µM.

“GGGAAAAGCGAAUCAUACACAAGANNNNNNNNNNNNNNNNNNNNNNNNNNNNNNNNNNNNNNNNNNNNNNNNNNGCUCCGCCAGAGACCAACCGAGAA [50N9 random 2'-NH2 RNA]” showed a Kd in series [4] (2'-NH2 on all C and U, undetectable at 36 uM WGA monomer, p130 prints >4 uM) of over 4000 µM.

In series [6] (2'-NH2 on all C and U, specificity control), “GGGAAAAGCGAAUCAUACACAAGAUUGGUCGUACUGGACAGAGCCGUGGUAGAGGGAUUGGGACAAAGUGUCAGCUCCGCCAGAGACCAACCGAGAA [WGA ligand 11.20]” gave a Kd of 11.2 µM.

In series [5] (2'-NH2 C and U, 37 C), “GGGAGACAAGAAAUAAACNCUCAAGCCCCAAACGCAAGUGAGCAUCCGCAACAGGGAAGAAGACAGAUGAAUGAUUCGACAGGAGGCUCACAACAGGC [PA466]” came in with a Kd of 0.43 nM.

In the case of “GGGAGACAAGAAUAAACGCUCAAAAGGUGCCGGGUUGGAGGGGUAGCAAGAAAUGGCUAGGGCGCASGAUUCGACAGGNGGCUCACAACAGGC [PA339]”, the Kd in series [5] (2'-NH2 C and U, 37 C) was 13.5 nM.

Consider “GGGAGACAAGAAUAAACGCUCAAAUCAACUAAACAACGCAGUCACGAGAACGACCGGKCUGACUCCGAAAGUUCGACAGGAGGCUCACAACAGGC [PA448]”, for which the Kd in [5] (2'-NH2 on all C and U, 37 C) was 5 nM.

“GGGAGACAAGAAUAAACGCUCAACGAGUUCACAUGGGAGCAAUCUCCGAAUAAACAACACGCKAKCGCAAAUUCGACAGGAGGCUCACAACAGGC [PF424]”: the Kd in series [5] (2'-F C and U, HSMC, 37 C) stood at 0.0365 nM.

For “GGGAGACAAGAAUAAACGCUCAAGUACRCAGUGAGCAGAAGCAGAGAGACUUGGGAUGGGAUGAAAUGGKCUUCGACAGGAGGCUCACAACAGGC [PA467]”, the Kd in series [5] (2'-NH2 C and U, 37 C) came out at 24 nM.

In series [5] (2'-NH2 C and U, 37 C), “GGGAGACAAGAAUAAACGCUCAANNNGAGGAAGGGCACGCAAGGAAACAAAACACAAAGCAGAAGUAGUAAGAUUCGACAGGAGGCUCACAACAGGC [PA465]” returned a dissociation constant (Kd) of over 50 nM.

Sequence “GGGAGACAAGAAUAAACNCUCAACGAAAUAGAAGGAACAGAAGAAUGGBGAWGNGGGAAAUGGCAACGAAUUCGACAGGNGGCUCACAACAGGC [PA321]” displayed a Kd in series [5] (2'-NH2 C and U, 37 C) of 8 nM.

The sequence “GGGAGACAAGAAUAAACNCUCAAGCCCCAAGCAAGUGAGCAUCCGCAACAGGGAAGAAGACAGACGAGUGAUUCGACAGGAGGCUCACAACAGGC [PA473]” gave a Kd in series [5] (2'-NH2 C and U, 37 C) of 0.36 nM.

For the sequence “GGGAGGACGAUGCGGAAGUGAAGCUAAAGCGGAGGGCCAUUCAGUUUCNCACCACAGACGACUCGCCCGA [F14.2]”, the Kd is 1.8 nM in series [1] (2'-NH2 on all C and U, 4 C, 7.2 nM at room temp); 1.9 µM in series [2] (2'-NH2 C and U, HSMC, 4 C); over 20 µM in series [3] (2'-NH2 C and U, <5% bound, 4 C); 450 nM in series [5] (2'-NH2 C and U, HSMC, 4 C).

In the case of “GGGAGGACGAUGCGGAAGUGAAGCUAAAGSGGAGGGCCACUCAGAAACGCACCACAGACGACUCGCCCGA [F14.13]”, the dissociation constant (Kd) in [1] (2'-NH2 C and U, 4 C, biphasic (0.74), low affinity 270 nM) came out at 1.3 nM.

In [7], “GGGAGGACGAUGCGGACGUGUGUAUCRARUUUUCCGCUGUUUGUGCAGACGACUCGCCCGA [LF1718]” showed a Kd of 0.0064 µM.

For the sequence “GGGAGGACGAUGCGGAUAYUCAGCUYGUGUKUUUUCDAUCUUCCCCAGACGACUCGCCCGA [LF1707]”, the Kd in series [7] came to 0.00016 µM.

On to “GGGAGGACGAUGCGGCCGUACAUGGUAARCCUCGAAGGAUUCCCGGGAUGAUCCCCAGACGACUCGCCCGA [F14.27]”, for which the Kd in [1] (2'-NH2 C and U, HSMC, 4 C) stood at 145 nM.

“GGGAGGACGAUGCGGGAGGAAUGGACWGCGUAUAUCGAGUUGCCUCAGACGACUCGCCCGA [LF1713]” showed a Kd in series [7] (table prints SEQ 338) of 0.00022 µM.

As to “GGGAGGACGAUGCGGNNNNNNNNNNNNNNNNNNNNNNNNNNNNNNNNNNNNNNNNCAGACGACUCGCCCGA [40N7 random 2'-NH2 RNA]”, the dissociation constant (Kd) in series [1] (2'-NH2 on all C and U, random pool, estimate) was 10000 nM.

With “GGGAGGACGAUGCGGUAACAACAAUCAAGGCGGGUUYACCGCCCCAGUAUGAGUACAGACGACUCGCCCGA [F14.12]”, the Kd was 0.0013 µM in [8]; 0.06 nM in series [1] (2'-NH2 on all C and U, 4 C, HSMC (Ca, Mg), Table 9 prints 5.8 pM (4 C), 1.7 nM room temp); 0.047 µM in series [2] (setting [12]); over 20 µM in series [3] (2'-NH2 on all C and U, <5% bound at 660 nM protein); 910 nM in series [5] (setting [12]). In [9], this sequence showed a 50% inhibitory concentration (IC50) of 0.01 µM.

In the case of “GGGAGGACGAUGCGGUCCAGAGCGUGAAGAUCAACGUCCCGGNGUCGAAGACAGACGACUCGCCCGA [F14.70]”, the Kd was 2 nM in [1] (2'-NH2 on all C and U, 4 C, biphasic, fraction 0.75, second Kd 254 nM); 5.9 µM in series [2] (2'-NH2 C and U, HSMC, 4 C); over 20 µM in series [3] (2'-NH2 C and U, <5% bound, 4 C).

For “GGGAGGACGAUGCGGUUAGCCUACACUCUAGGUUCAGUUUUCGAAUCUUCCACCGCWGACGACUCGCCCGA [LF1618]”, the Kd in [1] (2'-F on all C and U, 37 C) worked out at 9.6 nM.
